Measured values taken from publication PMC12416549 (2024).

T1: TNFR1 (Homo sapiens, UniProt P19438)
T1 chain: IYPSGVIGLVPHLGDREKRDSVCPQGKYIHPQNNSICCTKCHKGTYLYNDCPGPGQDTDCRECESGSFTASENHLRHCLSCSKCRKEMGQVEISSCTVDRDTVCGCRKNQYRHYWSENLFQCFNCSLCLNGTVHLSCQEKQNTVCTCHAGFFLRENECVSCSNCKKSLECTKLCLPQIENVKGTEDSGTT


Molecular target: T1, TNFR1
Experiment: yeast display SC50

Row | apparent Kd (screen) | Binder
1 | 1.4 nM | K64T (designed binder) SMEEEVEKAAKEYEKKKKEAIEKHLEKLKAKDKEAAERFLKELEEAAKEYAKDEAKTMSEEEATRRAKKYKEKVLLSELSEEEQKEIKEAEEKLVRTILKYVEEAAK
2 | 10.4 nM | I87M (designed binder) SMEEEVEKAAKEYEKKKKEAIEKHLEKLKAKDKEAAERFLKELEEAAKEYAKDEAKTMSEEEAKRRAKKYKEKVLLSELSEEEQKEMKEAEEKLVRTILKYVEEAAK
3 | 0.49 nM | K88E (designed binder) SMEEEVEKAAKEYEKKKKEAIEKHLEKLKAKDKEAAERFLKELEEAAKEYAKDEAKTMSEEEAKRRAKKYKEKVLLSELSEEEQKEIEEAEEKLVRTILKYVEEAAK
4 | 2.73 nM | M58L (designed binder) SMEEEVEKAAKEYEKKKKEAIEKHLEKLKAKDKEAAERFLKELEEAAKEYAKDEAKTLSEEEAKRRAKKYKEKVLLSELSEEEQKEIKEAEEKLVRTILKYVEEAAK
5 | 0.49 nM | K88W (designed binder) SMEEEVEKAAKEYEKKKKEAIEKHLEKLKAKDKEAAERFLKELEEAAKEYAKDEAKTMSEEEAKRRAKKYKEKVLLSELSEEEQKEIWEAEEKLVRTILKYVEEAAK
6 | 2.05 nM | A106Q (designed binder) SMEEEVEKAAKEYEKKKKEAIEKHLEKLKAKDKEAAERFLKELEEAAKEYAKDEAKTMSEEEAKRRAKKYKEKVLLSELSEEEQKEIKEAEEKLVRTILKYVEEAQK
7 | 2.48 nM | E61R (designed binder) SMEEEVEKAAKEYEKKKKEAIEKHLEKLKAKDKEAAERFLKELEEAAKEYAKDEAKTMSEREAKRRAKKYKEKVLLSELSEEEQKEIKEAEEKLVRTILKYVEEAAK
8 | 1.86 nM | E61C (designed binder) SMEEEVEKAAKEYEKKKKEAIEKHLEKLKAKDKEAAERFLKELEEAAKEYAKDEAKTMSECEAKRRAKKYKEKVLLSELSEEEQKEIKEAEEKLVRTILKYVEEAAK
9 | 1.54 nM | E60G (designed binder) SMEEEVEKAAKEYEKKKKEAIEKHLEKLKAKDKEAAERFLKELEEAAKEYAKDEAKTMSGEEAKRRAKKYKEKVLLSELSEEEQKEIKEAEEKLVRTILKYVEEAAK
10 | 12.5 nM | E54T (designed binder) SMEEEVEKAAKEYEKKKKEAIEKHLEKLKAKDKEAAERFLKELEEAAKEYAKDTAKTMSEEEAKRRAKKYKEKVLLSELSEEEQKEIKEAEEKLVRTILKYVEEAAK
11 | 0.304 nM | V74E (designed binder) SMEEEVEKAAKEYEKKKKEAIEKHLEKLKAKDKEAAERFLKELEEAAKEYAKDEAKTMSEEEAKRRAKKYKEKELLSELSEEEQKEIKEAEEKLVRTILKYVEEAAK

Second part, the binder before the results:

Row | Binder | apparent Kd (screen)
12 | L28K (designed binder) SMEEEVEKAAKEYEKKKKEAIEKHLEKKKAKDKEAAERFLKELEEAAKEYAKDEAKTMSEEEAKRRAKKYKEKVLLSELSEEEQKEIKEAEEKLVRTILKYVEEAAK | 1.54 nM
13 | K15S (designed binder) SMEEEVEKAAKEYESKKKEAIEKHLEKLKAKDKEAAERFLKELEEAAKEYAKDEAKTMSEEEAKRRAKKYKEKVLLSELSEEEQKEIKEAEEKLVRTILKYVEEAAK | 0.653 nM
14 | K15I (designed binder) SMEEEVEKAAKEYEIKKKEAIEKHLEKLKAKDKEAAERFLKELEEAAKEYAKDEAKTMSEEEAKRRAKKYKEKVLLSELSEEEQKEIKEAEEKLVRTILKYVEEAAK | 0.869 nM
15 | K41I (designed binder) SMEEEVEKAAKEYEKKKKEAIEKHLEKLKAKDKEAAERFLIELEEAAKEYAKDEAKTMSEEEAKRRAKKYKEKVLLSELSEEEQKEIKEAEEKLVRTILKYVEEAAK | 0.539 nM
16 | A35W (designed binder) SMEEEVEKAAKEYEKKKKEAIEKHLEKLKAKDKEWAERFLKELEEAAKEYAKDEAKTMSEEEAKRRAKKYKEKVLLSELSEEEQKEIKEAEEKLVRTILKYVEEAAK | 1.86 nM
17 | M2A (designed binder) SAEEEVEKAAKEYEKKKKEAIEKHLEKLKAKDKEAAERFLKELEEAAKEYAKDEAKTMSEEEAKRRAKKYKEKVLLSELSEEEQKEIKEAEEKLVRTILKYVEEAAK | 0.49 nM
18 | E4D (designed binder) SMEDEVEKAAKEYEKKKKEAIEKHLEKLKAKDKEAAERFLKELEEAAKEYAKDEAKTMSEEEAKRRAKKYKEKVLLSELSEEEQKEIKEAEEKLVRTILKYVEEAAK | 0.446 nM
19 | R38N (designed binder) SMEEEVEKAAKEYEKKKKEAIEKHLEKLKAKDKEAAENFLKELEEAAKEYAKDEAKTMSEEEAKRRAKKYKEKVLLSELSEEEQKEIKEAEEKLVRTILKYVEEAAK | 2.48 nM
20 | L43R (designed binder) SMEEEVEKAAKEYEKKKKEAIEKHLEKLKAKDKEAAERFLKEREEAAKEYAKDEAKTMSEEEAKRRAKKYKEKVLLSELSEEEQKEIKEAEEKLVRTILKYVEEAAK | 13.8 nM
21 | A36F (designed binder) SMEEEVEKAAKEYEKKKKEAIEKHLEKLKAKDKEAFERFLKELEEAAKEYAKDEAKTMSEEEAKRRAKKYKEKVLLSELSEEEQKEIKEAEEKLVRTILKYVEEAAK | 1.27 nM
22 | A36S (designed binder) SMEEEVEKAAKEYEKKKKEAIEKHLEKLKAKDKEASERFLKELEEAAKEYAKDEAKTMSEEEAKRRAKKYKEKVLLSELSEEEQKEIKEAEEKLVRTILKYVEEAAK | 1.05 nM
23 | L25V (designed binder) SMEEEVEKAAKEYEKKKKEAIEKHVEKLKAKDKEAAERFLKELEEAAKEYAKDEAKTMSEEEAKRRAKKYKEKVLLSELSEEEQKEIKEAEEKLVRTILKYVEEAAK | 1.27 nM
24 | L40E (designed binder) SMEEEVEKAAKEYEKKKKEAIEKHLEKLKAKDKEAAERFEKELEEAAKEYAKDEAKTMSEEEAKRRAKKYKEKVLLSELSEEEQKEIKEAEEKLVRTILKYVEEAAK | 0.49 nM
25 | E34L (designed binder) SMEEEVEKAAKEYEKKKKEAIEKHLEKLKAKDKLAAERFLKELEEAAKEYAKDEAKTMSEEEAKRRAKKYKEKVLLSELSEEEQKEIKEAEEKLVRTILKYVEEAAK | 0.446 nM
26 | A46C (designed binder) SMEEEVEKAAKEYEKKKKEAIEKHLEKLKAKDKEAAERFLKELEECAKEYAKDEAKTMSEEEAKRRAKKYKEKVLLSELSEEEQKEIKEAEEKLVRTILKYVEEAAK | 1.86 nM
